The values below come from patent US11564995B2, “Peptide-nanoparticle conjugates” (Wisconsin Alumni Research Foundation, priority 2018, dated 2023).

“Also recorded” adds a separate entry of the source. Residues, ends and D or L forms follow the SMILES beside them. No end group written: not given here.

One series addresses T1, PD-L1 proteins (Homo sapiens, UniProt Q9NZQ7).
T1 construct: purchased R&D systems
As to the kind of experiment: Surface plasmon resonance (SPR) binding to immobilized PD-L1. The procedure:
Surface plasma resonance (SPR). SPR analysis was done using a BIAcore™ X (Pharmacia Biosensor AB, Uppsala, Sweden). In short, PD-L1 proteins (R&D systems) were immobilized onto carboxylated dextran-coated gold film surface of sensor chip (CM5 sensor chip, GE Healthcare) through EDC/NHS chemistry. 30 μL of sample solution was injected at a flow rate of […]. Sample solution was allowed to flow into both channels (channel 1 for reference, channel 2 with PD-L1), and the final SPR sensorgrams were obtained by subtracting the […].
In general terms: Surface plasmon resonance follows binding to a sensor surface in real time, without labels.

For the next series, the target named is fβH2_mt/PD-L1 complex (Homo sapiens, UniProt Q9NZQ7). The series is described as follows: Fluorescence polarization (FP) competition assay. It is filed as binding. To be noted: 10 nM, PD-L1, 2 μM, FIG. 15. The procedure: Fluorescence polarization (FP) assay. FP assay in PBS was used the PD-L1 binding and competition assays (λex=480 nm; λem=535 nm). Fluorescence anisotropy measurements were performed at room temperature, in a 384-well plate, and using an Infinite® M1000 Pro microplate reader (Tecan). A fβH2_mt/PD-L1 complex was used for the FP competition assay after 30 min incubation time and titrated with the competitors.
Chain of fβH2_mt/PD-L1 complex (Q9NZQ7 19-239 limits assumed, one chain of several): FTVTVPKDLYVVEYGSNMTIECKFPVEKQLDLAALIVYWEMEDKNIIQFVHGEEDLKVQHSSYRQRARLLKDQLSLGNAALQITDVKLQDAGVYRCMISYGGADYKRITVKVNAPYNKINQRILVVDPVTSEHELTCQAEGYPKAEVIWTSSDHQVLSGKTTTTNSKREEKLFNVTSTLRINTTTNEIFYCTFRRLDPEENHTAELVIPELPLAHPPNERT
(Fluorescence polarisation rises when a labelled molecule tumbles more slowly, as on binding a larger partner.)

The subject of series [1] is 786-O cells (a PD-L1 overexpressing cell line). The series is described as follows: Fluorescence microscopy of cell interaction, 786-O cells. It is filed as cell-based, Human. The procedure: (§1) Cell culture. Human renal cell carcinoma (RCC) cell line, 786-O, and breast cancer cell line, MCF-7, were utilized as high- and low-PD-L1 expressing cancer cell models, respectively. The human T lymphocyte cell line, Jurkat, was used in this study as a representative PD-1-expressing immune cells. 786-O and Jurkat T cells were cultured in RPMI media, while MCF-7 cells were grown in DMEM media. All cell culture media were supplemented with 1% (v/v) penicillin/streptomycin (P/S) and 10% (v/v) fetal bovine serum (FBS). Cells were incubated under humidified atmosphere containing 5% CO2 at 37° C.

For series [2], the system named is MCF-7 cells (with a low level of PD-L1 expression). As to the kind of experiment: Fluorescence microscopy of cell interaction, MCF-7 cells. It is filed as cell-based, Human. As to conditions: treated 1 h. The procedure: as §1
Another series concerns 786-O cells. The series is described as follows: Chemosensitivity assay with doxorubicin in cancer cell/Jurkat T cell co-culture. As to conditions: 786-O cells co-cultured with Jurkat T cells, then DOX; FIG. 22. It is filed as cell-based, Human. The procedure: as §1
Chemosensitivity Assay. Chemosensitivity assay was performed by measuring the synergistic cytotoxicity effect of immune checkpoint inhibitors, together with chemotherapeutic drug, doxorubicin. Cancer cells were plated in 96-well plates (5,000 cells/well) and incubated for 48 h. Cancer cells and Jurkat T cells were pre-treated with IFNγ and PHA/PMA as aforementioned. Cancer cells were then stained with calcein AM (1.5 μM), followed by 2 h treatment with ICIS. The cells were co-cultured for another 24 h in a 1:4 ratio, prior to doxorubicin (5 μM) treatment. The effect of each ICI on cancer cell survival following doxorubicin treatment (2 h) was analyzed based on changes in fluorescent intensity.

T1 sequence (Q9NZQ7 19-290): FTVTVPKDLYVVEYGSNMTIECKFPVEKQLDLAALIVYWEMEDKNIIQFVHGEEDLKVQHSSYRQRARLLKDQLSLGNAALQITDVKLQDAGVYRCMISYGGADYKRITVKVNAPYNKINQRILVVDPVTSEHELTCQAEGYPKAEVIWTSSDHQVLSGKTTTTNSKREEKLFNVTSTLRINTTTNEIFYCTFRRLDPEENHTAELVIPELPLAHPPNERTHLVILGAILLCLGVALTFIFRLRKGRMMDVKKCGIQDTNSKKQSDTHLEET

“G7-βH2_mt: βH2_mt peptides attached to the surface of generation seven (G7) PAMAM dendrimers, rhodamine labelled; about 30 peptides per dendrimer (HVVWHRESPSGQTDTKAA; also: attached to surface of G7 PAMAM dendrimers, about 30 peptides per dendrimer, rhodamine labelled)”: the “PD-L1 affinity relative to βH2_mt” value in the series with PD-L1 proteins (SPR) is on record as “five orders of magnitude higher”. Besides, in the series with PD-L1 proteins (SPR), the “association rate constant (ka)” value was 2.52×10^5. Moreover, the “PD-L1 affinity by SPR sensorgram (comparison in words)” value in the series with PD-L1 proteins (immobilized PD-L1 proteins, FIG. 4 and 5) is “higher affinity to immobilized PD-L1 proteins than G7-βH1_mt; also recorded: higher than that of the wildtype βH2-dendrimer conjugate control (G7-βH2_wt)”. In addition, the “displacement of fβH2_mt from PD-L1 / complex integrity” value in the series with fβH2_mt/PD-L1 complex is “dose-dependent displacement of fβH2_mt from PD-L1; also recorded: more effective competitiveness than aPDL1 antibodies”. In addition, the “cell interaction (Rhodamine fluorescence)” value in series [1] (786-O cells, treated 1 h) was “strong cell interactions”; in series [2] it was “interacted significantly less”. In addition, the “PD-L1 selectivity (786-O vs MCF-7 cells)” value in series [1] (fluorescence microscopy, 786-O vs MCF-7) is “high PD-L1 selectivity”. For the same compound, the “decrease of cell viability compared to cells treated with doxorubicin only” value with 786-O cells was 8.4±3.8%.

Regarding `CC(C)[C@H](NC(=O)[C@@H](NC(=O)[C@@H](N)Cc1c[nH]cn1)C(C)C)C(=O)N[C@@H](Cc1c[nH]c2ccccc12)C(=O)N[C@@H](Cc1c[nH]cn1)C(=O)N[C@@H](CCCNC(=N)N)C(=O)N[C@@H](CCC(=O)O)C(=O)N[C@@H](CO)C(=O)N1CCC[C@H]1C(=O)N[C@@H](CO)C(=O)NCC(=O)N[C@@H](CCC(N)=O)C(=O)N[C@H](C(=O)N[C@@H](CC(=O)O)C(=O)N[C@H](C(=O)N[C@@H](CCCCN)C(=O)N[C@@H](C)C(=O)N[C@@H](C)C(N)=O)[C@@H](C)O)[C@@H](C)O` [βH2_mt, HVVWHRESPSGQTDTKAA] (H-HVVWHRESPSGQTDTKAA-NH2; N-terminus and C-terminus assumed), the kon on PD-L1 proteins (SPR, read-out: association rate constant (ka)) came out at 1070 M⁻¹ s⁻¹.
